Assay results reported in the supplement of paper PMC9112550, “Optimization of the antimicrobial peptide Bac7 by deep mutational scanning” (BMC Biology, 2022).

tested on: Escherichia coli TOP10; experiment: shrunken log2 fold change of peptide-encoding DNA abundance (4.5 h post-induction vs induction); higher = less antimicrobial activity (less host growth inhibition); details: time post-induction: 4.5 h; library: site-saturation at positions 5, 18, 19, 20
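Also: peptides expressed intracellularly from a pBAD plasmid library in pooled LB shake-flask culture, induced with 0.3% L-arabinose, DNA abundance read by NGS, three biological replicates, DESeq2 with apeglm shrinkage.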

Sequence	shrunken log2 fold change
RRIRVRPPRLPRPRPRPRWKPRP	0.328
RRIRMRPPRLPRPRPRPLCDPRP	1.11
RRIRPRPPRLPRPRPRPDDLPRP	-0.296
RRIRRRPPRLPRPRPRPVYEPRP	0.15
RRIRWRPPRLPRPRPRPMREPRP	1.09
RRIRHRPPRLPRPRPRPIHYPRP	-0.0138
RRIRCRPPRLPRPRPRPQLWPRP	0.366
RRIRNRPPRLPRPRPRPYPLPRP	-0.042
RRIRGRPPRLPRPRPRPLKWPRP	0.367
RRIRCRPPRLPRPRPRPANTPRP	-0.265
RRIRQRPPRLPRPRPRPSYIPRP	-0.417
RRIRQRPPRLPRPRPRPGKQPRP	-0.117
RRIRTRPPRLPRPRPRPQNYPRP	-0.311
RRIRHRPPRLPRPRPRPIQWPRP	-0.01
RRIRVRPPRLPRPRPRPQNFPRP	-0.0453
RRIRERPPRLPRPRPRPYSMPRP	-1.48
RRIRCRPPRLPRPRPRPDVSPRP	-0.185
RRIRERPPRLPRPRPRPFGTPRP	-0.135
RRIRDRPPRLPRPRPRPMVKPRP	0.115
RRIRIRPPRLPRPRPRPVWDPRP	-0.14
RRIRARPPRLPRPRPRPWVYPRP	-0.0996
RRIRRRPPRLPRPRPRPYEVPRP	-0.0692
RRIRIRPPRLPRPRPRPTKWPRP	-0.15
RRIRCRPPRLPRPRPRPACMPRP	-0.162
RRIRKRPPRLPRPRPRPTVQPRP	0.777

Sequence	shrunken log2 fold change
RRIRGRPPRLPRPRPRPSWRPRP	0.477
RRIRGRPPRLPRPRPRPTIYPRP	0.365
RRIRTRPPRLPRPRPRPPLYPRP	-0.12
RRIRYRPPRLPRPRPRPDGCPRP	-0.029
RRIRTRPPRLPRPRPRPDAWPRP	0.285
RRIRCRPPRLPRPRPRPWERPRP	-0.118
RRIRERPPRLPRPRPRPNYCPRP	-0.0596
RRIRERPPRLPRPRPRPKTTPRP	-0.107
RRIRVRPPRLPRPRPRPIGEPRP	0.0407
RRIRARPPRLPRPRPRPHICPRP	-0.104
RRIRWRPPRLPRPRPRPEVMPRP	0.00589
RRIRNRPPRLPRPRPRPMWVPRP	0.0358
RRIRGRPPRLPRPRPRPDNNPRP	0.388
RRIRIRPPRLPRPRPRPYGTPRP	-0.894
RRIRTRPPRLPRPRPRPPCMPRP	0.0978
RRIRPRPPRLPRPRPRPMLRPRP	0.34
RRIRMRPPRLPRPRPRPGVVPRP	0.761
RRIRVRPPRLPRPRPRPNCVPRP	-0.0661
RRIRLRPPRLPRPRPRPEAEPRP	0.96
RRIRQRPPRLPRPRPRPQQFPRP	0.0507
RRIRRRPPRLPRPRPRPYTDPRP	-0.0165
RRIRFRPPRLPRPRPRPRGTPRP	0.294
RRIRARPPRLPRPRPRPEHWPRP	0.261
RRIRTRPPRLPRPRPRPGWAPRP	0.622
RRIRMRPPRLPRPRPRPFHMPRP	0.105

Sequence	shrunken log2 fold change
RRIRPRPPRLPRPRPRPFYMPRP	-0.324
RRIRKRPPRLPRPRPRPNSHPRP	-0.272
RRIRQRPPRLPRPRPRPAWNPRP	-0.206
RRIRFRPPRLPRPRPRPQYYPRP	-0.846
RRIRDRPPRLPRPRPRPQFVPRP	-0.0477
RRIRTRPPRLPRPRPRPPQHPRP	0.22
RRIRSRPPRLPRPRPRPDLCPRP	-0.159
RRIRMRPPRLPRPRPRPTFRPRP	-0.091
RRIRQRPPRLPRPRPRPTWPPRP	0.268
RRIRWRPPRLPRPRPRPSVIPRP	-0.272
RRIRLRPPRLPRPRPRPNAFPRP	0.00952
RRIRMRPPRLPRPRPRPEWCPRP	0.234
RRIRDRPPRLPRPRPRPYIKPRP	-0.565
RRIRARPPRLPRPRPRPIHGPRP	-0.208
RRIRTRPPRLPRPRPRPADWPRP	0.446
RRIRERPPRLPRPRPRPRSEPRP	-0.0574
RRIRYRPPRLPRPRPRPQFGPRP	0.03
RRIRKRPPRLPRPRPRPRKHPRP	0.328
RRIRNRPPRLPRPRPRPFMSPRP	-0.17
RRIRNRPPRLPRPRPRPGIHPRP	0.0285
RRIRVRPPRLPRPRPRPLSYPRP	-0.18
RRIRLRPPRLPRPRPRPPCPPRP	0.316
RRIRVRPPRLPRPRPRPIYNPRP	-0.675
RRIRVRPPRLPRPRPRPILWPRP	0.0127
RRIRCRPPRLPRPRPRPDDAPRP	-0.0228
